Consider 6 molecules from paper PMC3961380, “Activation of 2′ 5′-Oligoadenylate Synthetase by Stem Loops at the 5′-End of the West Nile Virus Genome”.

For series [1], the system named is T1, OAS1 p42 isoform (transcript variant 2), wild type (human), P00973-2.
T1 sequence: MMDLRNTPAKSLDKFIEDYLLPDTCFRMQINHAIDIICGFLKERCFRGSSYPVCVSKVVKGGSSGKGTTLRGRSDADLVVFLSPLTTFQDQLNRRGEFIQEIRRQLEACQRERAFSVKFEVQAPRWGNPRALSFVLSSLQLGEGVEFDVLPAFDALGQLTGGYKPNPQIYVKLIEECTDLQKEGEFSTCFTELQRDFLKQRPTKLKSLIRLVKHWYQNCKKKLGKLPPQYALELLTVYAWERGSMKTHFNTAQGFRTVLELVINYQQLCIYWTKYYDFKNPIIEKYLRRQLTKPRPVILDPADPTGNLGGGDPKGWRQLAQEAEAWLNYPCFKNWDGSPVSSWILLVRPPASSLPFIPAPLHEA
In words: OAS1 activation kinetics (Kapp, PPi assay). As to conditions: pH 7.5, 10 min at room temperature (~20 C).

For a further series, the system named is OAS1 S162G (human). In words: OAS1 activation kinetics (Kapp, PPi assay). As to conditions: pH 7.5, 10 min at room temperature (~20 C).
Series [2] has as its target T2, OAS1 p42 isoform (transcript variant 2), wild type (human, UniProt P00973-2 1-364).
T2 sequence: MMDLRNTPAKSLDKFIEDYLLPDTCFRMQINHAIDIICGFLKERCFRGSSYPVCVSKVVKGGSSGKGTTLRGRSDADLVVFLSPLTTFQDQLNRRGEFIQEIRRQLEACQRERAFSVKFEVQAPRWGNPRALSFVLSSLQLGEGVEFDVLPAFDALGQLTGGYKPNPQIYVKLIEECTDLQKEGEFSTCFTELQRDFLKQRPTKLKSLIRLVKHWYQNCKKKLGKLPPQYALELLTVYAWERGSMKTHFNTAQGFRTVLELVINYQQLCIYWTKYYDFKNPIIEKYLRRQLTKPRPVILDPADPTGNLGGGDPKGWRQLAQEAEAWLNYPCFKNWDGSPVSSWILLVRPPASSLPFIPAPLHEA
In words: OAS1 activation kinetics (Kapp NA); 400 nM OAS1; no detectable affinity; […], pH 7.5, 10 min at room temperature (~20 C); […]. As to conditions: protein: recombinant; tags: none after TEV cleavage of N-terminal GNSHT tag (GB1, NusA, Streptavidin, 6xHis); label: none (SYBR Gold stain); stem loop.

In series [3] the target is T2, OAS1 p42 isoform (transcript variant …). In words: OAS1 activation kinetics (Kapp, PPi assay); 400 nM OAS1; […], pH 7.5, 10 min at room temperature (~20 C); […]. The following applies: protein: recombinant; tags: none after TEV cleavage of N-terminal GNSHT tag (GB1, NusA, Streptavidin, 6xHis); label: none (SYBR Gold stain); two stem loops.

Regarding WNV SLI, the K half in series [1] worked out at 5830 nM. The same measure, in the same setting: the result for WNV SLI/II reads 528 nM. In the case of WNV SLI/II/III, the K half in the series on OAS1 S162G (human) was 1490 nM; in series [1] it was 1450 nM.

For the molecule GCUGUUUCUUAGCACGAAGAUCUCGAUGUCUAAGAAACC (structured_RNA) [WNV SLII], in series [2], the binding result is listed as “no binding”.

Take AGGAGGGCCCGGCAAGAGCCGGGCUGUCAAUAUGCU (structured_RNA) [WNV SLIII]: the binding result in series [2] is given as “no binding”.

B1: WNV SLII/III (structured_RNA)
RNA: GCUGUUUCUUAGCACGAAGAUCUCGAUGUCUAAGAAACCAGGAGGGCCCGGCAAGAGCCGGGCUGUCAAUAUGCU
On to B1, for which the “apparent K (half saturation)” value in series [3] is 5.78 ± 0.452 µM.
